Changes are numbered by the printed parent chain. Names and notes keep the numbering of the source.

Sequences and labels used below:
B1: H240-Kn061/H240-Hl071/L73-k0 variant with Y235F in H240-Kn061 (antibody, human IgG1, kappa)
heavy 1: QDQLVQSGAEVKKPGASVKVSCKASGFNIKDTYIQWVRQAPGQGLEWMGRIDPLRKQTKYREKFEGRVTITADTSTNTAYMELSSLRSEDTAVYYCVRSGREFDYWGQGTLVTVSSASTKGPSVFPLAPSSKSTSGGTAALGCLVKDYFPEPVTVSWNSGALTSGVHTFPAVLQSSGLYSLSSVVTVPSSSLGTQTYICNVNHKPSNTKVDKKVEPKSCDKTHTCPPCPAPEYFWGPSVFLFPPKPKDTLMISRTPEVTCVVVDVSDEDPEVKFNWYVDGVEVHNAKTKPREEQYNATYRVVSVLTVLHQDWLNGKEYKCKVSNKALPAPIEKTISKAKGQPREPQVCTLPPSRDELTKNQVSLWCLVKGFYPSDIAVEWESNGQPENNYKTTPPVLDSDGSFFLYSKLTVDKSRWQQGNVFSCSVMHEALHNHYTQKSLSLSP
heavy 2: QDQLVQSGAEVKKPGASVKVSCKASGFNIKDTYIQWVRQAPGQGLEWMGRIDPLRKQTKYREKFEGRVTITADTSTNTAYMELSSLRSEDTAVYYCVRSGREFDYWGQGTLVTVSSASTKGPSVFPLAPSSKSTSGGTAALGCLVKDYFPEPVTVSWNSGALTSGVHTFPAVLQSSGLYSLSSVVTVPSSSLGTQTYICNVNHKPSNTKVDKKVEPKSCDKTHTCPPCPAPELLGGPSVFLFPPKPKDTLMISRTPEVTCVVVDVSHEDPEVKFNWYVDGVEVHNAKTKPREEQYNSTYRVVSVLTVLHQDWLNGKEYKCKVSNDALPMPIEETISKAKGQPREPQVYTLPPSRCELTKNQVSLSCAVKGFYPSDIAVEWESNGQPENNYKTTPPVLDSDGSFFLVSKLTVDKSRWQQGNVFSCSVMHEALHNHYTQKSLSLSP
light: DIQMTQSPSSLSASVGDRVTITCRASQDIHKYIAWYQQKPGQAPRLLIQYTSTLQPGVPSRFSGSGSGTDYTFTISSLQPEDIATYYCLQYEQLRTFGGGTKVEIKRTVAAPSVFIFPPSDEQLKSGTASVVCLLNNFYPREAKVQWKVDNALQSGNSQESVTEQDSKDSTYSLSSTLTLSKADYEKHKVYACEVTHQGLSSPVTKSFNRGEC
notes: anti-epiregulin heterodimerized IgG1; also called H240-Kn061 Y235F
B2: H240-Kn061/H240-Hl071/L73-k0 variant with Y235L in H240-Kn061 (antibody, human IgG1, kappa)
heavy 1: B1 heavy 1 with F234L
heavy 2: B1 heavy 2
light: B1 light
notes: anti-epiregulin heterodimerized IgG1; also called H240-Kn061 Y235L
B3: H240-Kn061/H240-Hl071/L73-k0 variant with Y235M in H240-Kn061 (antibody, human IgG1, kappa)
heavy 1: B1 heavy 1 with F234M
heavy 2: B1 heavy 2
light: B1 light
notes: anti-epiregulin heterodimerized IgG1; also called H240-Kn061 Y235M
B4: H240-Kn061/H240-Hl071/L73-k0 variant with Y235N in H240-Kn061 (antibody, human IgG1, kappa)
heavy 1: B1 heavy 1 with F234N
heavy 2: B1 heavy 2
light: B1 light
notes: anti-epiregulin heterodimerized IgG1; also called H240-Kn061 Y235N
B5: H240-Kn061/H240-Hl071/L73-k0 variant with Y235T in H240-Kn061 (antibody, human IgG1, kappa)
heavy 1: B1 heavy 1 with F234T
heavy 2: B1 heavy 2
light: B1 light
notes: anti-epiregulin heterodimerized IgG1; also called H240-Kn061 Y235T
B6: H240-Kn061/H240-Hl071/L73-k0 variant with Y235W in H240-Kn061 (antibody, human IgG1, kappa)
heavy 1: B1 heavy 1 with F234W
heavy 2: B1 heavy 2
light: B1 light
notes: anti-epiregulin heterodimerized IgG1; also called H240-Kn061 Y235W

T2 sequence (P08637 17-208): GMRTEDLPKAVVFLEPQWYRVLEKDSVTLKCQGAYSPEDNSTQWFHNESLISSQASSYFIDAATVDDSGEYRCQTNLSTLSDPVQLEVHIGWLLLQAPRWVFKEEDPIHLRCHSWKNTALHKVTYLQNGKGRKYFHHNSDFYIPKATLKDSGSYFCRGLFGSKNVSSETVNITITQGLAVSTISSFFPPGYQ

The first experiment deals with T1, FcgRIIIa V (FcγRIIIa type V) extracellular domain with C-terminal His tag (human, UniProt P08637 17-208).
T1 construct: extracellular domain; also called FcγRIIIa V; not shown: His tag attached to the C terminus
T1 sequence (P08637 17-208 F176V limits assumed): as the sequence (P08637 17-208) above, with F160V counted along it
Put plainly: SPR (Biacore); KD of H240-Kn061/H240-Hl071/L73-k0 divided by KD of the variant. The procedure:
(§1) The antibodies were assessed for the binding to each FcgR. […] The resultant value was defined as relative KD, and used as an assessment indicator.
(§2) Analysis of interaction between objective antibody and the FcγR was carried out using Biacore T100 (GE Healthcare), Biacore T200, Biacore A100, and Biacore 4000. HBS-EP+ (GE Healthcare) was used as the running buffer, and the measurement temperature was set to 25° C. Chips produced by immobilizing the antigen peptide by the amine coupling method to a Series S sensor Chip CM5 (GE Healthcare), chips produced by allowing preliminarily biotinylated antigen peptides to interact with and immobilize onto a Series S Sensor Chip SA (certified) (GE Healthcare), chips produced by immobilizing Protein L (ACTIGEN, BioVision) to Series S Sencor Chip CM5 (GE Healthcare), or chips produced by immobilizing Protein A/G (Thermo Scientific) to Series S Sencor Chip CM5 (GE Healthcare) were used. Antibodies of interest were captured onto these chips, and allowed to interact to each FcγR diluted with running buffer.
Turning to B1, the “relative KD” value came out at 1.5 ratio.
The same measure, in the same setting: as for B2, the figure is 1.5 ratio; as for B3, 1.8 ratio.
Still for that read-out and setting: for B4 the value was 2 ratio; for B5, 1.1 ratio; for B6, 1.3 ratio.

A further experiment has as its target T2, FcgRIIIa F (FcγRIIIa type F) extracellular domain with C-terminal His tag (human, UniProt P08637 17-208).
T2 construct: extracellular domain; also called FcγRIIIa F; 3aF; not shown: His tag attached to the C terminus
Described as above. The procedure:
as §1, §2
Consider B1, for which the “relative KD” value stood at 1.3 ratio.
Still for that read-out and setting: as for B2, the figure is 1.8 ratio; as for B3, 1.7 ratio; as for B4, 1.3 ratio.
In the case of B5, the “relative KD” value is 0.9 ratio.
As to B6, the “relative KD” value was found to be 1.1 ratio.

A further experiment has as its target T3, FcgRIIb (FcγRIIb) extracellular domain with C-terminal His tag (human, UniProt P31994 43-217).
T3 construct: extracellular domain; not shown: His tag attached to the C terminus
T3 sequence (looked up): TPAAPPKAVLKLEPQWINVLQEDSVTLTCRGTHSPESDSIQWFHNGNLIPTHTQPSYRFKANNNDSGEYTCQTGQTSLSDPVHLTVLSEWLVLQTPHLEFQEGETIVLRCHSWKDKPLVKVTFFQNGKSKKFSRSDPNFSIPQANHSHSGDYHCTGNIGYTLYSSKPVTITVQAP
The description is as above. The method, then: as §1, §2
Consider B1, for which the “relative KD” value was found to be 1.2 ratio.
Still for that read-out and setting: as for B2, the figure is 0.9 ratio.
Still for that read-out and setting: as for B3, the figure is 0.7 ratio.
For the molecule B4, the “relative KD” value came to 0.7 ratio.
Still for that read-out and setting: for B5 the value was 0.6 ratio; for B6, 1.3 ratio.

The record behind these values is patent US20150344570A1 (published 2015).
